In article PMC9063202 (2022):

Experiments:
[1] = target: T1, IRISIN protein (human recombinant IRISIN) (human, UniProt Q8NAU1 1-191); test: BLI
T1 chain: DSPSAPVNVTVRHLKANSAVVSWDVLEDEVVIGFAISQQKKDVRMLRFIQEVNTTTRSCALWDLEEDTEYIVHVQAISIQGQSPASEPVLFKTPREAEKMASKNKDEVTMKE

[2] = target: T1, IRISIN protein (human recombinant …); test: BLI

B1: TRPC3 protein (provided by Chen Lei Laboratory, Peking University) (natural protein)
chain: MEGSPSLRRMTVMREKGRRQAVRGPAFMFNDRGTSLTAEEERFLDAAEYGNIPVVRKMLEESKTLNVNCVDYMGQNALQLAVGNEHLEVTELLLKKENLARIGDALLLAISKGYVRIVEAILNHPGFAASKRLTLSPCEQELQDDDFYAYDEDGTRFSPDITPIILAAHCQKYEVVHMLLMKGARIERPHDYFCKCGDCMEKQRHDSFSHSRSRINAYKGLASPAYLSLSSEDPVLTALELSNELAKLANIEKEFKNDYRKLSMQCKDFVVGVLDLCRDSEEVEAILNGDLESAEPLEVHRHKASLSRVKLAIKYEVKKFVAHPNCQQQLLTIWYENLSGLREQTIAIKCLVVLVVALGLPFLAIGYWIAPCSRLGKILRSPFMKFVAHAASFIIFLGLLVFNASDRFEGITTLPNITVTDYPKQIFRVKTTQFTWTEMLIMVWVLGMMWSECKELWLEGPREYILQLWNVLDFGMLSIFIAAFTARFLAFLQATKAQQYVDSYVQESDLSEVTLPPEIQYFTYARDKWLPSDPQIISEGLYAIAVVLSFSRIAYILPANESFGPLQISLGRTVKDIFKFMVLFIMVFFAFMIGMFILYSYYLGAKVNAAFTTVEESFKTLFWSIFGLSEVTSVVLKYDHKFIENIGYVLYGIYNVTMVVVLLNMLIAMINSSYQEIEDDSDVEWKFARSKLWLSYFDDGKTLPPPFSLVPSPKSFVYFIMRIVNFPKCRRRRLQKDIEMGMGNSKSRLNLFTQSNSRVFESHSFNSILNQPTRYQQIMKRLIKRYVLKAQVDKENDEVNEGELKEIKQDISSLRYELLEDKSQATEELAILIHKLSEKLNPSMLRCE
- Kd [1]: 32.2 nM
- koff [2]: 0.00384 s⁻¹
